Biological target: Archeoglobus fulgidus HypB (A. fulgidus)
Assay: SEC-MALS; SEC/LS, Superdex-75 HR10/30, 100 uL at 3 mg/mL, with 1 mM GMPPNP (GTP analog), 50 mM Tris pH 7.5, 0.1 M NaCl, 5 mM MgCl2, 1 mM TCEP, room temperature; monomer to dimer

stoichiometry N: 2
Substance: Archeoglobus fulgidus HypB (natural protein)
